Tests used:
[1] = target: T1, prostate specific membrane antigen (PSMA) on LNCaP cells (human, UniProt Q04609 1-750); test: ELISA on plates coated with LNCap membrane preparation
T1 construct: whole, on cells; also called LNCap membrane preparation

[2] = target: T1, prostate specific membrane antigen …; test: ELISA on plates coated with LNCap membrane preparation; purified antibody; reference J415 chimeric antibody

T1 sequence (Q04609 whole entry): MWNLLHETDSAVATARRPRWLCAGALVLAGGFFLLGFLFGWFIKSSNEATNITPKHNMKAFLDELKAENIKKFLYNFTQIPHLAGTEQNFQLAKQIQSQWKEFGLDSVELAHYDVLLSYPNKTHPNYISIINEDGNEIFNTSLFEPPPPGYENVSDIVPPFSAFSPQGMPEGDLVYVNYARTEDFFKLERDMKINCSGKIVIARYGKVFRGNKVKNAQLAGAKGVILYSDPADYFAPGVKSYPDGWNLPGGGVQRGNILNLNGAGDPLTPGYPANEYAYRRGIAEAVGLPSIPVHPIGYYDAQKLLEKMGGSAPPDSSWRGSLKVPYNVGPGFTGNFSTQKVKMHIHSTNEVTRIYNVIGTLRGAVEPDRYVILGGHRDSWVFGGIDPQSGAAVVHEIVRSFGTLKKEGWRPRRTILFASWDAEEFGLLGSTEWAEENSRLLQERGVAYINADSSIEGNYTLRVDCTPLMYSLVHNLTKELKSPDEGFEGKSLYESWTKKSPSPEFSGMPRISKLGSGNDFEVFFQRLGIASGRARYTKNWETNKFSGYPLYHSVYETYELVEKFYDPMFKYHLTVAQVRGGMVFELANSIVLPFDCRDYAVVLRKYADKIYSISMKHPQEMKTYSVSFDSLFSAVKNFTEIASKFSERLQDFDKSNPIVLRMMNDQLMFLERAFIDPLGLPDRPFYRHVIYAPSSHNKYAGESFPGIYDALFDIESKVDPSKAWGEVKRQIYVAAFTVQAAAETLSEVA

Binder	binding result [1]	fold less binding than the chimeric antibody [2]
deimmunized J415 heavy chain version 4 combined with deimmunized J415 light chain version 5 (antibody, V domains shown, also called DIVH4/DIVK5; J415DIVH4/J415DIVK5) VH: EVKLEESGGGLVQPGGSMKISCVASGFTFSNYWMNWVRQSPEKGLEWVAEIRSQSNNFATHYAESVKGRVIISRDDSKSSVYLQMNSLRAEDTAVYYCTRRWNNFWGQGTTVTVSS VL: NIVMTQFPKSMSASAGERMTLTCKASENVGTYVSWYQQKPTQSPKMLIYGASNRFTGVPDRFSGSGSGTDFILTISSVQAEDLVDYYCGQSYTFPYTFGGGTKLEMK	binds	
J415 chimeric antibody (antibody, V domains shown, Expression vectors carry human IgG1 and kappa; also called the chimeric) VH: EVKLEESGGGLVQPGGSMKLSCVASGFTFSNYWMNWVRQSPEKGLEWVAEIRSQSNNFATHYAESVKGRVIISRDDSKSSVYLQMNNLRAEDTGIYYCTRRWNNFWGQGTTLTVSS VL: NIVMTQFPKSMSISVGERVTLTCKASENVGTYVSWYQQKPEQSPKMLIYGASNRFTGVPDRFTGSGSATDFILTISSVQTEDLVDYYCGQSYTFPYTFGGGTKLEMK	binds	

Continued, values first:

binding result [1]	fold less binding than the chimeric antibody [2]	Binder
	2 fold	deimmunized J415 heavy chain version 1 combined with DIVK5 (antibody, V domains shown, also called J415DIVH1/J415DIVK5) VH: EVKLEESGGGLVQPGGSMKISCKASGFTFSNYWMNWVRQTPEKGLEWVALIRSQSNNFATHYAESVKGRVIISRDDSKSSVYLQMNSLRAEDTAVYYCTRRWNNFWGQGTTVTVSS VL: NIVMTQFPKSMSASAGERMTLTCKASENVGTYVSWYQQKPTQSPKMLIYGASNRFTGVPDRFSGSGSGTDFILTISSVQAEDLVDYYCGQSYTFPYTFGGGTKLEMK
	2 fold	deimmunized J415 heavy chain version 2 combined with DIVK5 (antibody, V domains shown, also called J415DIVH2/J415DIVK5) VH: EVKLEESGGGLVQPGGSMKISCVASGFTFSNYWMNWVRQTPEKGLEWVALIRSQSNNFATHYAESVKGRVIISRDDSKSSVYLQMNSLRAEDTAVYYCTRRWNNFWGQGTTVTVSS VL: NIVMTQFPKSMSASAGERMTLTCKASENVGTYVSWYQQKPTQSPKMLIYGASNRFTGVPDRFSGSGSGTDFILTISSVQAEDLVDYYCGQSYTFPYTFGGGTKLEMK
